These are literature values, as cited in publication PMC4193333.

pKd: −log10 of the molar value.

The data set has as its target BK channel alpha subunit (UniProt Q12791).
Sequence of UniProt Q12791 (Q12791 whole entry): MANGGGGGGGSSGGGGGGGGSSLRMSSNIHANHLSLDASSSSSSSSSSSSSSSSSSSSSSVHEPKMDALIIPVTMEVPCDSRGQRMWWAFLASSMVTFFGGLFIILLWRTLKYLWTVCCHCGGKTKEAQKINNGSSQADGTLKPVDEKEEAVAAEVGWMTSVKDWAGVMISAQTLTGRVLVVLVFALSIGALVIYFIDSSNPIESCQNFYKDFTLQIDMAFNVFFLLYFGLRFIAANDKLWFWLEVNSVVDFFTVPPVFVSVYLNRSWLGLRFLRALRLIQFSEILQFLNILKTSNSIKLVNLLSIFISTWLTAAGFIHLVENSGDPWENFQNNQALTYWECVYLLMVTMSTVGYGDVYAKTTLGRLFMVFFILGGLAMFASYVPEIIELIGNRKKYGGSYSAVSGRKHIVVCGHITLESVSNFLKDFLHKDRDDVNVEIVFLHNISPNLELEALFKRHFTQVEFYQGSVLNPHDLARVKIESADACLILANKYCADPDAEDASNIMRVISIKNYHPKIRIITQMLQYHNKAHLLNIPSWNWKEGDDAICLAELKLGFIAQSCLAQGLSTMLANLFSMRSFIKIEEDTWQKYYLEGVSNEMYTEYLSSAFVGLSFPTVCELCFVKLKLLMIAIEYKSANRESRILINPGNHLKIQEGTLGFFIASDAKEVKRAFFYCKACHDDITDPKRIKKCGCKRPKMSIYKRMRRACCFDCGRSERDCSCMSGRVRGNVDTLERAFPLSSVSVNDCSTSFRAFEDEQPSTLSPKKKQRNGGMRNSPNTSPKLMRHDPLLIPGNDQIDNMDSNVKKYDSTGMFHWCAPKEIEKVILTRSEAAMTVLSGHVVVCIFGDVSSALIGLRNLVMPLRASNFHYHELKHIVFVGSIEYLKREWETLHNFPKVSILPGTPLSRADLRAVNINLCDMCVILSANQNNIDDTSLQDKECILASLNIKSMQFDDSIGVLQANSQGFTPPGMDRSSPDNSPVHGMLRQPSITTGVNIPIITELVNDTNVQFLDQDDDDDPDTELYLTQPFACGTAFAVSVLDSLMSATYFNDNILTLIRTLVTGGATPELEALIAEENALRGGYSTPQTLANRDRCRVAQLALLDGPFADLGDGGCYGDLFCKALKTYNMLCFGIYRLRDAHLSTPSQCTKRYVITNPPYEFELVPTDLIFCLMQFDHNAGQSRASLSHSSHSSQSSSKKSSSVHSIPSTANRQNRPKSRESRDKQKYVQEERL

Turning to “Iberiotoxin (IbTX) (from UniProt P24663)”, the pKd (commonly the negative decadic logarithm of the Kd, by convention in mol/L) was 8.82.
